Results reported in patent publication US20210380703A1.
Numbering of substitutions follows the chain as printed.

B1: 370_F03 (antibody, V domains shown)
VH: EVQLLESGGGLVQPGGSLRLSCAASGFTFSSYGMNWVRQAPGKGLEWVSSINYNSGYKSYADSVKGRFTISRDNSKNTLYLQMNSLRAEDTAVYYCARGANWHDTALDYWGQGTLVTVSS
VL: DIQMTQSPSSLSASVGDRVTITCRASQSILSYVNWYQQKPGKAPKLLIYAATSRASGVPSRFSGSGSGTDFTLTISSLQPEDFATYYCQQSYENPLTFGGGTKVEIK
B2: 370_H02 (antibody, V domains shown)
VH: B1 VH with S30D, G33S, S50G, K58T, A106H
VL: B1 VL with S31T, V33L, N94S
B3: 370_H07 (antibody, V domains shown)
VH: B1 VH with G33S, S49A, S50G, S55G
VL: B1 VL with V33L, R54L, Y92D, E93S, N94S
B4: 371_A10 (antibody, V domains shown)
VH: B1 VH with S30D, S31D, G33S, S50G, S55G, S59G
VL: B1 VL with L30V, V33L, L47V
B5: 371_B03 (antibody, V domains shown)
VH: B1 VH with N35H, S49A, S55G, K58T, A106H
VL: B1 VL with A51T, E93D
B6: 371_B04 (antibody, V domains shown)
VH: B1 VH with G33S, S50G, S55G
VL: B1 VL with V33L, L47V, A51V, A55H, E93D, N94S
B7: 371_B09 (antibody, V domains shown)
VH: B1 VH with G33S, S49A, S50G, K58T, S59G, A106H
VL: B1 VL with L47V, A51T, R54L, E93D, N94T
B8: 371_B12 (antibody, V domains shown)
VH: B1 VH with S31D, G33S, S49A, S50G, K58T
VL: B1 VL with L30V, S31T, V33L, L47V, A55H, E93N
B9: 371_C01 (antibody, V domains shown)
VH: B1 VH with N35H, S55G, K58T, S59G, A106H
VL: B1 VL with L30V, V33L, A55H, E93D
B10: 371_C05 (antibody, V domains shown)
VH: B1 VH with S31D, N35H, S49A, S50N, S55G, K58T, S59G
VL: B1 VL with V33L, E93D, N94S
B11: 371_C12 (antibody, V domains shown)
VH: B1 VH with G33S, S49A, S50G, A106H
VL: B1 VL with L30V, E93D, N94T
B12: 371_D02 (antibody, V domains shown)
VH: B1 VH with S30D, S31D, G33S, S49A, S50G, S55G
VL: B1 VL with L30V, S31T, V33L, E93D, N94S
B13: 371_D04 (antibody, V domains shown)
VH: B1 VH with S30D, S31D, G33S, S49A, S50G, S55G, K58T, S59G, A106H
VL: B1 VL with L30V, R54L
B14: 371_E06 (antibody, V domains shown)
VH: B1 VH with G33S, S50G, S55G, K58T
VL: B1 VL with L30S, S31T, V33L, A51V, R54L, A55H, N94S
B15: 371_E07 (antibody, V domains shown)
VH: B1 VH with S30D, G33S, S49A, S50G, S55G, K58T
VL: B1 VL with L30I, V33L, R54L, N94S
B16: 367_D11 (antibody, V domains shown)
VH: B1 VH with S30D, N35H, S50N, S55G, G99A
VL: B1 VL with L30I, V33L, E93D, N94S
B17: 371_E10 (antibody, V domains shown)
VH: B1 VH with S30D, G33S, S49A, S50G, S55G, K58T
VL: B1 VL with L30S, S31T, V33L, A51V, E93N, N94S
B18: 371_F10 (antibody, V domains shown)
VH: B1 VH with S30D, S50G, K58T
VL: B1 VL with L30S, V33L, L47V, A51V, N94S
B19: 371_F11 (antibody, V domains shown)
VH: B1 VH with G33S, S50G, S55G, K58T
VL: B1 VL with L30I, A51V, E93D, N94L
B20: 371_G02 (antibody, V domains shown)
VH: B1 VH with S30D, S49A, S55G, K58T, A106H
VL: B1 VL with V33L, E93D, N94L
B21: 371_G04 (antibody, V domains shown)
VH: B1 VH with S30D, G33S, S50G, S55G
VL: B1 VL with V33L, R54L, A55H, N94S
B22: 371_G09 (antibody, V domains shown)
VH: B1 VH with G33S, S49A, S50N, S55G, K58T, S59G
VL: B1 VL with V33L, L47V, Y92D, E93S, N94T
B23: 371_G11 (antibody, V domains shown)
VH: B1 VH with S50N, K58T
VL: B1 VL with R54L, E93D, N94S
B24: 371_H04 (antibody, V domains shown)
VH: B1 VH with S50N, S55G, K58T, S59G
VL: B1 VL with S31T, V33L, E93N, N94S
B25: 371_H05 (antibody, V domains shown)
VH: B1 VH with S50G
VL: B1 VL with L30I, V33L, R54L, E93S, N94L
B26: 371_H06 (antibody, V domains shown)
VH: B1 VH with S30D, S50G, S55G, K58T
VL: B1 VL with L30S, V33L, L47V, A51V, E93D, N94L
B27: 367_F06 (antibody, V domains shown)
VH: B1 VH with K58T, G99A
VL: B1 VL with L30S, A51V, E93D, N94S
B28: 371_H08 (antibody, V domains shown)
VH: B1 VH with S49A, S55G, S59G, A106H
VL: B1 VL with L30I, L47V, A51V, E93D, N94T
B29: 371_H10 (antibody, V domains shown)
VH: B1 VH with G33S, S49A, S50G, A106H
VL: B1 VL with L30S, S31T, V33L, A55H
B30: 372_B02 (antibody, V domains shown)
VH: B1 VH with G33S, S50G, K58T
VL: B1 VL with A51V, R54L, N94T
B31: 372_D03 (antibody, V domains shown)
VH: B1 VH with G33S, S49A, S50G
VL: B1 VL with L47V, A51V, A55H, E93D, N94S
B32: 372_E01 (antibody, V domains shown)
VH: B1 VH with S30D, S31D, G33S, S50G, S55G, S59G
VL: B1 VL with L30V, V33L, L47V, A55H, E93D, N94S
B33: 372_G12 (antibody, V domains shown)
VH: B1 VH with S30D, G33S, S49A, S50G, S55G, K58T, S59G, A106H
VL: B1 VL with S31T, V33L, L47V, A55H, E93D, N94S
B34: 373_A01 (antibody, V domains shown)
VH: B1 VH with S50N, S55G, K58T, S59G, A106H
VL: B1 VL with L30V, S31T, V33L, L47V, A51T, E93N, N94L
B35: 373_A03 (antibody, V domains shown)
VH: B1 VH with S31D, G33S, S49A, S50N, S55G, K58T, S59G
VL: B1 VL with V33L, L47V, E93D
B36: 373_A05 (antibody, V domains shown)
VH: B1 VH with S31D, G33S, S50G, A106H
VL: B1 VL with L47V, A55H, N94S
B37: 367_H01 (antibody, V domains shown)
VH: B1 VH with S30D, S50G, S55G, G99A
VL: B1 VL with S31T, V33L, L47V, E93D
B38: 373_A09 (antibody, V domains shown)
VH: B1 VH with S30D, G33S, S49A, S50G, S55G, K58T
VL: B1 VL with S31T, V33L, R54L, E93D, N94T
B39: 373_A11 (antibody, V domains shown)
VH: B1 VH with S31N, S49A, S50N, S55G, K58T, S59G
VL: B1 VL with S31T, V33L, E93D, N94L
B40: 373_A12 (antibody, V domains shown)
VH: B1 VH with G33S, S55G, K58T
VL: B1 VL with S31T, V33L, L47V, E93D, N94T
B41: 373_B05 (antibody, V domains shown)
VH: B1 VH with S31D, G33S, S50N, S55G
VL: B1 VL with L30V, S31T, V33L, L47V, E93S
B42: 373_B07 (antibody, V domains shown)
VH: B1 VH with S30D, G33S, S50G, S55G, K58T
VL: B1 VL with S31T, L47V, N94L
B43: 373_C03 (antibody, V domains shown)
VH: B1 VH with G33S, S50G, S55G
VL: B1 VL with L30V, S31T, V33L, L47V, E93D, N94S
B44: 373_C07 (antibody, V domains shown)
VH: B1 VH with S30D, G33S, S49A, S50G, K58T, A106H
VL: B1 VL with S31T, V33L, L47V, N94T
B45: 373_C10 (antibody, V domains shown)
VH: B1 VH with G33S, S49A, S50G, S55G, K58T
VL: B1 VL with S31T, E93D
B46: 373_D03 (antibody, V domains shown)
VH: B1 VH with G33S, S50G, S55G, K58T
VL: B1 VL with L30V, V33L, R54L, E93D, N94T
B47: 373_D12 (antibody, V domains shown)
VH: B1 VH with S30D, G33S, S59G, A106H
VL: B1 VL with E93S, N94L
B48: 368_A02 (antibody, V domains shown)
VH: B1 VH with S30D, S49A, S50G, S55G, G99A, A106H
VL: B1 VL with L30I, L47V, E93D, N94T

Target: human Fc (human)
Experiment: ELISA, negative control

| optical density [OD] | Binder |
| --- | --- |
| 0.373 | B1 |
| 0.386 | B2 |
| 0.403 | B3 |
| 0.338 | B4 |
| 0.367 | B5 |
| 0.295 | B6 |
| 0.292 | B7 |
| 0.378 | B8 |
| 0.402 | B9 |
| 0.269 | B10 |
| 0.544 | B11 |
| 0.385 | B12 |
| 0.276 | B13 |
| 0.33 | B14 |
| 0.337 | B15 |
| 0.304 | B16 |
| 0.341 | B17 |
| 0.299 | B18 |
| 0.331 | B19 |
| 0.514 | B20 |
| 0.325 | B21 |
| 0.315 | B22 |
| 0.399 | B23 |
| 0.35 | B24 |

| optical density [OD] | Binder |
| --- | --- |
| 0.321 | B25 |
| 0.346 | B26 |
| 0.265 | B27 |
| 0.309 | B28 |
| 0.358 | B29 |
| 0.371 | B30 |
| 0.319 | B31 |
| 0.409 | B32 |
| 0.439 | B33 |
| 0.177 | B34 |
| 0.189 | B35 |
| 0.172 | B36 |
| 0.388 | B37 |
| 0.248 | B38 |
| 0.184 | B39 |
| 0.179 | B40 |
| 0.184 | B41 |
| 0.208 | B42 |
| 0.171 | B43 |
| 0.206 | B44 |
| 0.318 | B45 |
| 0.18 | B46 |
| 0.224 | B47 |
| 0.376 | B48 |
